The record followed here is article PMC7026407, “Multiple Growth Factor Targeting by Engineered Insulin-like Growth Factor Binding Protein-3 Augments EGF Receptor Tyrosine Kinase Inhibitor Efficacy” (Scientific Reports, 2020).

A word on the koff: it is the first-order rate constant of dissociation. Read a low koff as slow dissociation. Usually kon stands for a measure of how fast the partners come together. Read a low kon as slower complex formation. For orientation: Kd means the equilibrium constant for the complex coming apart. Low readings indicate higher affinity, high ones lower affinity.

The chains are these.
B4: VEGF-B (ligand, UniProt P49765 22-207, looked up)
chain: PVSQPDAPGHQRKVVSWIDVYTRATCQPREVVVPLTVELMGTVAKQLVPSCVTVQRCGGCCPDDGLECVPTGQHQVRMQILMIRYPSSQLGEMSLEEHSQCECRPKKKDSAVKPDRAATPHHRPQPRSVPGWDSAPGAPSPADITHPTPAPGPSAHAAPSTTSALTPGPAAAAADAAASSVAKGGA
notes: vascular endothelial growth factor B
B6: PDGF BB (ligand, UniProt P01127 82-190, looked up)
chain: SLGSLTIAEPAMIAECKTRTEVFEISRRLIDRTNANFLVWPPCVEVQRCSGCCNNRNVQCRPTQVQLRPVQVRKIEIVRKKPIFKKATVTLEDHLACKCETVAAARPVT
notes: platelet-derived growth factor B chain

Holding throughout (settings): both partners purified
Experiment [1] deals with B4. The experiment can be described thus: SPR; growth factor amine-coupled to a CM4 chip, Fc fusion as analyte (values marked * in Table 1); Biacore T100/T200; HBS-P, with 0.2 mg/ml BSA or 0.65 M NaCl to reduce non-specific binding; 25 °C; 1:1 binding fit. Background: In SPR one partner is held on a chip, and binding of the other changes the refractive index at the surface.

For experiment [2], the target named is T1, hepatocyte growth factor (UniProt P14210 32-728).
T1 construct: hepatocyte growth factor; also called HGF; source: bought
The description is as above.
T1 sequence (P14210 32-728): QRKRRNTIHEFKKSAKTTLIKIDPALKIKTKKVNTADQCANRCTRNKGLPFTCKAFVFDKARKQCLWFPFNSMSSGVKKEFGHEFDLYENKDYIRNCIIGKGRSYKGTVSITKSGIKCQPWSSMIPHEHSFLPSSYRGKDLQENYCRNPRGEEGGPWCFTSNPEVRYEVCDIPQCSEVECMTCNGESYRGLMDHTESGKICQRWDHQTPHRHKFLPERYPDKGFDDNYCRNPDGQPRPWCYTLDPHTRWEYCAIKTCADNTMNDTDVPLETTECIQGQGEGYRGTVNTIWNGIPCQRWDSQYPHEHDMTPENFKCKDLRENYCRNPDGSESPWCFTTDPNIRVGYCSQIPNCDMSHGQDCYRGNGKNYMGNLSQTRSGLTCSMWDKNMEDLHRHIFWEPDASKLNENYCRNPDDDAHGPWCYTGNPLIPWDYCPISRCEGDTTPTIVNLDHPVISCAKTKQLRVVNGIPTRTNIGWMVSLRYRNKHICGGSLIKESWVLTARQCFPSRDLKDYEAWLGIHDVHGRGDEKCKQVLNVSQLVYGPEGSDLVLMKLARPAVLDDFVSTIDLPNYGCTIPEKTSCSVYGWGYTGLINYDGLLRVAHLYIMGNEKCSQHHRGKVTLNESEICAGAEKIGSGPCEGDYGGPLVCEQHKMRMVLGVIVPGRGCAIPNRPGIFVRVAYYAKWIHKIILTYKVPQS

In experiment [3] the target is B6. The experiment is described as above.
Experiment [4] concerns the target T2, bFGF (UniProt P09038 143-288).
T2 construct: basic fibroblast growth factor; also called basic FGF
The description is as above.

Experiment [5] concerns the target neuregulin-1 (UniProt Q02297 20-241). The experiment is described as above.
For experiment [6], the target named is T3, insulin-like growth factor-1 (UniProt P05019 49-118).
T3 construct: insulin-like growth factor 1; also called IGF1; IGF-1
T3 sequence (P05019 49-118): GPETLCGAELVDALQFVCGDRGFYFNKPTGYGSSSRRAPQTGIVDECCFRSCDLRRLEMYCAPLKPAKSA
The experiment can be described thus: SPR; IGF binding protein or Fc fusion amine-coupled to a CM4 chip, growth factor as analyte; Biacore T100/T200; HBS-P, with 0.2 mg/ml BSA or 0.65 M NaCl to reduce non-specific binding; 25 °C; 1:1 binding fit.

In experiment [7] the target is T4, insulin-like growth factor-2 (UniProt P01344 25-91).
T4 construct: insulin-like growth factor 2; also called IGF2; IGF-2
T4 sequence (P01344 25-91): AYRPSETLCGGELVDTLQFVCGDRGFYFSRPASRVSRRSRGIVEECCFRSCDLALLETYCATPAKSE
Described as above.

Experiment [8] has as its target T5, 56662 (UniProt P17936-1 28-291).
T5 construct: Fc dimer; also called BP3-Fc; IGFBP-3-Fc; source: 293T cells, transfected, conditioned medium, purified (protein A Sepharose); not shown: Fc (IgG1), C-terminal, kept
The experiment in a line: SPR; growth factor amine-coupled to a CM4 chip, Fc fusion as analyte (values marked * in Table 1); Biacore T100/T200; HBS-P, with 0.2 mg/ml BSA or 0.65 M NaCl to reduce non-specific binding; 25 °C; 1:1 binding fit.

Experiment [9] has as its target T6, Chimera A.
T6 construct: VEGF receptor 1 domain 2, first part of VEGF-trap; VEGF receptor 2 domain 3, second part of VEGF-trap; VEGF-trap inserted between the IGFBP-3 and the Fc domain; Fc dimer; also called chA; BP3-VEGF-trap-Fc; source: 293T cells, transfected, conditioned medium, purified (protein A Sepharose); not shown: Fc (IgG1), C-terminal, kept
The experiment is described as above.

For experiment [10], the target named is T7, IGFBP-7 (UniProt Q16270 27-282).
T7 sequence (looked up): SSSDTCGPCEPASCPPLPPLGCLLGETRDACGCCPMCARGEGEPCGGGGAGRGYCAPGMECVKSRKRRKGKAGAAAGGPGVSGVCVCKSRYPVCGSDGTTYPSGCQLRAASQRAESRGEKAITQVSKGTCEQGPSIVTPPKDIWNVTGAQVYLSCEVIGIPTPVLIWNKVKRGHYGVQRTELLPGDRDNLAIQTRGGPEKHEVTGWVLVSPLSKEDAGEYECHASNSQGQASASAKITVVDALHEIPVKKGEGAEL
The experiment in a line: SPR; IGF binding protein or Fc fusion amine-coupled to a CM4 chip, growth factor as analyte; Biacore T100/T200; HBS-P, with 0.2 mg/ml BSA or 0.65 M NaCl to reduce non-specific binding; 25 °C; 1:1 binding fit.

Experiment [11] deals with IGFBP-3 (UniProt P17936 28-291). Described as above.
Experiment [12] addresses T8, hepatocyte growth factor (UniProt P14210 32-728).
T8 construct: hepatocyte growth factor, commercial; Mature HGF is a two-chain (alpha/beta) product of one precursor; the preparation is said to hold both processed and unprocessed forms; also called HGF; source: expressed in insect cells
The experiment in a line: SPR; IGF binding protein or Fc fusion amine-coupled to a CM4 chip, growth factor as analyte; Biacore T100 or T200, HBS-P, BSA (0.2 mg/ml) or NaCl (0.65 M final) to reduce non-specific binding, 25 °C; 1:1 binding analysis.
T8 sequence (P14210 32-728): as the sequence (P14210 32-728) above

For experiment [13], the target named is T5, 56662. The experiment in a line: SPR; IGF binding protein or Fc fusion amine-coupled to a CM4 chip, growth factor as analyte; Biacore T100/T200; HBS-P, with 0.2 mg/ml BSA or 0.65 M NaCl to reduce non-specific binding; 25 °C; 1:1 binding fit.
The target in experiment [14] is T9, IGFBP-2 (UniProt P18065 36-325).
T9 sequence (looked up): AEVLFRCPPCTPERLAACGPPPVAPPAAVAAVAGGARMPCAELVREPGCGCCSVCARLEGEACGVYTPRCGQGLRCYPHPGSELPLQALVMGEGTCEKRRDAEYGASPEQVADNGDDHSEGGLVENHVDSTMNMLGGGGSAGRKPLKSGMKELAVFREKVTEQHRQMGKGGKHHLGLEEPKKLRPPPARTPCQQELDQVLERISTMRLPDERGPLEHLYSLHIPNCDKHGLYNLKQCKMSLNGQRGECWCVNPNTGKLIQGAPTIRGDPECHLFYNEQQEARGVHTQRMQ
Described as above.

The target in experiment [15] is T10, 56662 (UniProt P17936-1 28-291).
T10 construct: the secretory signal peptide was derived from IGFBP-2; Fc portion of IgG1 added to the C terminus of IGFBP-3; called an Fc dimer; Probably the mature IGFBP-3 after removal of the IGFBP-2 signal peptide; also called IGFBP-3-Fc; BP3-Fc (unmodified IGFBP-3 Fc construct); source: 293 T cells, transfected; conditioned medium purified by proteinA Sepharose; not shown: Fc (IgG1), C-terminal, kept
The experiment can be described thus: SPR; growth factor immobilised on a CM4 chip instead of the binding protein (asterisk in Table 1), binding protein or Fc fusion as analyte; HBS-P, 25 °C; regeneration with 4 M MgCl2 then 5 M guanidinium chloride; 1:1 binding analysis.

The target of experiment [16] is T10, 56662. The experiment in a line: SPR; IGF binding protein or Fc fusion amine-coupled to a CM4 chip, growth factor as analyte; Biacore T100 or T200, HBS-P, BSA (0.2 mg/ml) or NaCl (0.65 M final) to reduce non-specific binding, 25 °C; 1:1 binding analysis.

T2 sequence (P09038 143-288): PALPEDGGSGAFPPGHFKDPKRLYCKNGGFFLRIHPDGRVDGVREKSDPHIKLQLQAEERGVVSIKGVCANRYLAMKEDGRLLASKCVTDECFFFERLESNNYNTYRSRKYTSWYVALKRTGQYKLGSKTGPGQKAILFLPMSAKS
Sequence of neuregulin-1 (Q02297 20-241): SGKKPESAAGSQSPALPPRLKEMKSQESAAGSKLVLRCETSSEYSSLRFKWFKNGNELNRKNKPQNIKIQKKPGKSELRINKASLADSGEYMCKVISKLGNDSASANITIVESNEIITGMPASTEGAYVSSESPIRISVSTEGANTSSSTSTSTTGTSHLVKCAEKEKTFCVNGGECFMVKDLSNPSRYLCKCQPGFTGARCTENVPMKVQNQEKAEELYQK
T6 sequence (Q02297 20-241, stated change not applied): as the sequence (Q02297 20-241) above

B1: D3 (Fc fusion)
chain: GASSAGLGPVVRCEPCDARALAQCAPPPAVCAELVREPGCGCCLTCALSEGQPCGIYTERCGSGLRCQPSPDEARPLQALLDGRGLCVNASAVSRPAPPAPGNASESEEDRSAGSVESPSVSSTHRVSDPKFHPKGHAKVDYESQSTDTQNFSSESKRETEYGPCRREMEDTLNHLKFLNVLSPRGVHIPNCDKKGFYKKKQCRPSKGRKRGFCWCVDKYGQPLPGYTTKGKEDVHCYSMQSK
modifications: Secreted Fc-fusion dimer; Fc omitted. Deletions 121-126, 166-174 and 180-185 are in 56662 precursor numbering (UniProt = construct + 2; the offset agrees with the H3t33-type deletion printed in …)
Take B1: the koff was 0.000445 s⁻¹ in [1]; 0.000291 s⁻¹ in experiment [2]; 0.00175 s⁻¹ in [3]; 0.000529 s⁻¹ in experiment [4]; 0.00053 s⁻¹ in experiment [5]; 8.36e-05 s⁻¹ in [6]. The koff in experiment [7] turned out to be 0.00185 s⁻¹. Further, the kon in experiment [1] amounted to 25000 M⁻¹ s⁻¹; in experiment [2], 110000 M⁻¹ s⁻¹; in experiment [3], 550000 M⁻¹ s⁻¹; in experiment [4], 161000 M⁻¹ s⁻¹; in experiment [5] it was 270000 M⁻¹ s⁻¹; in experiment [6], 163000 M⁻¹ s⁻¹. Further, the kon in experiment [7] was 8.25e+06 M⁻¹ s⁻¹.

B2: neuregulin-1 (ligand)
chain: SERKEGRGKGKGKKKERGSGKKPESAAGSQSPALPPRLKEMKSQESAAGSKLVLRCETSSEYSSLRFKWFKNGNELNRKNKPQNIKIQKKPGKSELRINKASLADSGEYMCKVISKLGNDSASANITIVESNEIITGMPASTEGAYVSSESPIRISVSTEGANTSSSTSTSTTGTSHLVKCAEKEKTFCVNGGECFMVKDLSNPSRYLCKCPNEFTGDRCQNYVMASFYKHLGIEFMEAEELYQK
modifications: R&D 377-HB, neuregulin extracellular domain, taken as NRG1-beta1 Ser2-Lys246; the paper prints only the catalogue number and 'extracellular domain'.
B2: the koff in [8] was found to be 0.00443 s⁻¹; in [9], 0.000291 s⁻¹; in experiment [10], 0.00129 s⁻¹; in [11], 0.000883 s⁻¹. Further, the kon in [8] is 481000 M⁻¹ s⁻¹; in experiment [9], 394000 M⁻¹ s⁻¹; in experiment [10], 800 M⁻¹ s⁻¹; in [11] it was 425000 M⁻¹ s⁻¹.

B3: IGFBP-7 (natural protein, UniProt Q16270 27-282, looked up)
chain: SSSDTCGPCEPASCPPLPPLGCLLGETRDACGCCPMCARGEGEPCGGGGAGRGYCAPGMECVKSRKRRKGKAGAAAGGPGVSGVCVCKSRYPVCGSDGTTYPSGCQLRAASQRAESRGEKAITQVSKGTCEQGPSIVTPPKDIWNVTGAQVYLSCEVIGIPTPVLIWNKVKRGHYGVQRTELLPGDRDNLAIQTRGGPEKHEVTGWVLVSPLSKEDAGEYECHASNSQGQASASAKITVVDALHEIPVKKGEGAEL
notes: source: bought (commercially available, carrier-free)
Turning to B3, the binding result in experiment [12] is given as “binds”.

B4: the koff in experiment [13] worked out at 0.000284 s⁻¹; in experiment [10], 0.00277 s⁻¹; in experiment [14], 0.000441 s⁻¹; in experiment [11], 0.000751 s⁻¹. In addition, the kon in experiment [13] was 45000 M⁻¹ s⁻¹; in experiment [10], 875000 M⁻¹ s⁻¹; in [14] it was 157000 M⁻¹ s⁻¹; in [11] it was 96600 M⁻¹ s⁻¹.

B5: PDGF BB (ligand, UniProt P01127 82-190, looked up)
chain: SLGSLTIAEPAMIAECKTRTEVFEISRRLIDRTNANFLVWPPCVEVQRCSGCCNNRNVQCRPTQVQLRPVQVRKIEIVRKKPIFKKATVTLEDHLACKCETVAAARPVT
notes: platelet-derived growth factor B chain; Homodimer of B chains by its name
Turning to B5, the Kd in experiment [15] stood at 4.19 nM; in experiment [16] it was 0.52 nM.

Turning to B6, in [8], the koff was found to be 0.000562 s⁻¹ and the kon was determined as 259000 M⁻¹ s⁻¹.
